The text below walks through data of patent US20140154265.

What is called kcat/KM is the turnover number divided by the Michaelis constant.

In data set [1] the target is FLAG-tagged ubiquitin, P0CG48.
The target in data set [2] is T1, RLRGG-AMC, C-terminal peptide motif of Ub and ISG15 coupled to aminomethylcoumarin.
T1 chain: RLRGG

Data set [3] addresses ubiquitin-aminomethylcoumarin, P0CG48.

Chain of ubiquitin-aminomethylcoumarin, P0CG48 (P0CG48 whole entry, looked up): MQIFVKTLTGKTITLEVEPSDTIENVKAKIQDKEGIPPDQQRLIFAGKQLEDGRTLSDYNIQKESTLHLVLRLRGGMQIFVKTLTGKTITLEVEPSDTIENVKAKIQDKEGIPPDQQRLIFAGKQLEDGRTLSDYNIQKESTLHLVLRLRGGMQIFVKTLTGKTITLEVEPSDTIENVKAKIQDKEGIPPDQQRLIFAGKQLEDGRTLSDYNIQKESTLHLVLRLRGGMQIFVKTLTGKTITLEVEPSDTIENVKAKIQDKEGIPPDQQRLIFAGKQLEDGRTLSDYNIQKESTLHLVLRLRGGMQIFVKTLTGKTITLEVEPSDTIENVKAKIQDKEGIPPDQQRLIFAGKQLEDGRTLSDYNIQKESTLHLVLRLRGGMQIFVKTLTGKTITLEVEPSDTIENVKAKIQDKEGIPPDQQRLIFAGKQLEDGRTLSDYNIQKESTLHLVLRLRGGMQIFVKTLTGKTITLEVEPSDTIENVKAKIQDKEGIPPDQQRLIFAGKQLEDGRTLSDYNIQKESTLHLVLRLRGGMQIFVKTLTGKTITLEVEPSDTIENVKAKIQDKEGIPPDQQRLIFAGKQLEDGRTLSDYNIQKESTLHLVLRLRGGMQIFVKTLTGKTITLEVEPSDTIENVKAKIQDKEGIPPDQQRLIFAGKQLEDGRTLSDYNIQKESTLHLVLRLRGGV
Chain of FLAG-tagged ubiquitin, P0CG48 (P0CG48 whole entry, looked up): as above

B1: EAV nsp2-3 polyprotein (residues 261-1064 of EAV pp1a) with N-terminal HA tag, PLP2 mutant I353R (protein)
chain: GYNPPGDGACGYRCLAFMNGATVVSAGCSSDLWCDDELAYRVFQLSPTFTVTIPGGRVCPNAKYAMICDKQHWRVKRAKGVGLCLDESCFRGRCNCQRMSGPPPAPVSAAVLDHILEAATFGNVRVVTPEGQPRPVPAPRVRPSANSSGDVKDPAPVPPVPKPRTKLATPNPTQAPIPAPRTRLQGASTQEPLASAGVASDSAPKWRVAKTVYSSAERFRTELVQRARSVGDVLVQALPLKTPAVQRYTMTLKMMRSRFSWHCDVWYPLAVIACLLPIWPSLALLLSFAIGLIPSVGNNVVLTALLVSSANYVASMDHQCEGAACLALLEEEHYYRAVRWRPITGALSLVLNLLGQVGYVARSTFDAAYVPCTVFDLCSFAILYLCRNRCWRCFGRCVRVGPATHVLGSTGQRVSKLALIDLCDHFSKPTIDVVGMATGWSGCYTGTAAMERQCASTVDPHSFDQKKAGATVYLTPPVNSGSALQCLNVMWKRPIGSTVLGEQTGAVVTAVKSISFSPPCCVSTTLPTRPGVTVVDHALYNRLTASGVDPALLRVGQGDFLKLNPGFRLIGGWIYGICYFVLVVVSTFTCLPIKCGIGTRDPFCRRVFSVPVTKTQEHCHAGMCASAEGISLDSLGLTQLQSYWIAAVTSGLVILLVCHRLAISALDLLTLASPLVLLVFPWASVGLLLACSLAGAAVKIQLLATLFVNLFFPQATLVTMGYWACVAALAVYSLMGLRVKVNVPMCVTPAHFLLLARSAGQSREQMLRVSAAAPTNSLLGVARDCYVTGTTRLYIPKEGGMVFE
As to B1, the “density of the alpha-flag lane (amount of remaining ubiquitin conjugates)” value in data set [1] is “shows a density of the alpha-flag lane that is about twice as high as that of the T312A lane”.

B2: EAV nsp2-3 polyprotein (residues 261-1064 of EAV pp1a) with N-terminal HA tag, PLP2 mutant T312A (protein)
chain: GYNPPGDGACGYRCLAFMNGATVVSAGCSSDLWCDDELAYRVFQLSPTFTVAIPGGRVCPNAKYAMICDKQHWRVKRAKGVGLCLDESCFRGICNCQRMSGPPPAPVSAAVLDHILEAATFGNVRVVTPEGQPRPVPAPRVRPSANSSGDVKDPAPVPPVPKPRTKLATPNPTQAPIPAPRTRLQGASTQEPLASAGVASDSAPKWRVAKTVYSSAERFRTELVQRARSVGDVLVQALPLKTPAVQRYTMTLKMMRSRFSWHCDVWYPLAVIACLLPIWPSLALLLSFAIGLIPSVGNNVVLTALLVSSANYVASMDHQCEGAACLALLEEEHYYRAVRWRPITGALSLVLNLLGQVGYVARSTFDAAYVPCTVFDLCSFAILYLCRNRCWRCFGRCVRVGPATHVLGSTGQRVSKLALIDLCDHFSKPTIDVVGMATGWSGCYTGTAAMERQCASTVDPHSFDQKKAGATVYLTPPVNSGSALQCLNVMWKRPIGSTVLGEQTGAVVTAVKSISFSPPCCVSTTLPTRPGVTVVDHALYNRLTASGVDPALLRVGQGDFLKLNPGFRLIGGWIYGICYFVLVVVSTFTCLPIKCGIGTRDPFCRRVFSVPVTKTQEHCHAGMCASAEGISLDSLGLTQLQSYWIAAVTSGLVILLVCHRLAISALDLLTLASPLVLLVFPWASVGLLLACSLAGAAVKIQLLATLFVNLFFPQATLVTMGYWACVAALAVYSLMGLRVKVNVPMCVTPAHFLLLARSAGQSREQMLRVSAAAPTNSLLGVARDCYVTGTTRLYIPKEGGMVFE
Regarding B2, the “density of the alpha-flag lane (amount of remaining ubiquitin conjugates)” value in data set [1] was “a mutant such as T312A already shows a level of DUB-activity that leads to a significantly denser alpha-flag lane, which represents the amount of remaining ubiquitin conjugates, than that of the wild-type virus”.

B3: EAV PLP2 domain (residues 261-392 of EAV pp1a) with C-terminal HIS6 purification tag, wild-type (protein)
chain: GYNPPGDGACGYRCLAFMNGATVVSAGCSSDLWCDDELAYRVFQLSPTFTVTIPGGRVCPNAKYAMICDKQHWRVKRAKGVGLCLDESCFRGICNCQRMSGPPPAPVSAAVLDHILEAATFGNVRVVTPEGQHHHHHH
On to B3, for which the kcat/KM in data set [2] amounted to 48 ± 8 M⁻¹ s⁻¹; in data set [3] it was 21000 ± 2000 M⁻¹ s⁻¹.

B4: EAV PLP2 domain I353R mutant (Ile353Arg), recombinant enzyme (protein)
chain: GYNPPGDGACGYRCLAFMNGATVVSAGCSSDLWCDDELAYRVFQLSPTFTVTIPGGRVCPNAKYAMICDKQHWRVKRAKGVGLCLDESCFRGRCNCQRMSGPPPAPVSAAVLDHILEAATFGNVRVVTPEGQHHHHHH
On to B4, for which the kcat/KM in data set [2] was found to be 71 ± 8 M⁻¹ s⁻¹. Further, in data set [3], the kcat/KM is 1100 ± 100 M⁻¹ s⁻¹ and the “kcat/KM value for Ub-AMC against that of the wild-type” value is “the kcat/KM value for Ub-AMC of the mutant I353R is 20 times lower than that of the wild-type virus”.
